# Legend:
# [1] = biological target: HA-tagged KMT2D S1331A (UniProt O14686)
# [2] = biological target: HA-tagged KMT2D (full length, wild type) (UniProt O14686)
# [3] = biological target: V5-tagged KMT2D fragment (1222-1819) (UniProt O14686)
# Chain of recombinant His-AKT (MRC-PPU Reagents DU1850) (P31749 whole entry): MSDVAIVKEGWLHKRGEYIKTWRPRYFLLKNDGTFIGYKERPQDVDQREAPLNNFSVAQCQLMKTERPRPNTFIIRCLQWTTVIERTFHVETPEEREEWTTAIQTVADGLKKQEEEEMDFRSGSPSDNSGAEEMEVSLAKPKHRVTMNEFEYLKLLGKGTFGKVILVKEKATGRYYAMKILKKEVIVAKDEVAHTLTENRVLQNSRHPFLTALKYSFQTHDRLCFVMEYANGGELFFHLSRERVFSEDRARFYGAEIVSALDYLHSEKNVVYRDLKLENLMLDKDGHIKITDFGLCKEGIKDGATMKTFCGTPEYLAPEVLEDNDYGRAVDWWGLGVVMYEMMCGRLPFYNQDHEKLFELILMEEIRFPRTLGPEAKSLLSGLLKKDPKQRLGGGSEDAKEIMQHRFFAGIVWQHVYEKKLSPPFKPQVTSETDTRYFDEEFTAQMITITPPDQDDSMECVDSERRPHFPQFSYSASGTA
substance,measurement,setting,value
recombinant His-AKT (MRC-PPU Reagents DU1850),in vitro kinase assay; phosphorylation detected by phospho-RXRXX(S/T) and phospho-KMT2D (S1331) antibodies,[1],Mutation of serine to alanine (S1331A) completely abrogated the ability of AKT to phosphorylate KMT2D in vitro
same,in vitro kinase assay; phosphorylation detected by phospho-RXRXX(S/T) and phospho-KMT2D (S1331) antibodies,[2],The kinase assay confirmed the ability of AKT to directly phosphorylate S1331
same,in vitro kinase assay with the KMT2D (1222-1819) fragment as substrate (FIG. 11C),[3],The kinase assay confirmed the ability of AKT to directly phosphorylate S1331

# — patent publication US20190270997
